Results reported in FireProtDB (doi:10.1021/bi201253b).

B1: D119K, A5H7H0 (parent)
chain: MQLQNFLSIVLLVVSGAIAGTVMDHDKIAKLPASGSPLETKFQPQLHIGNGCHSYPAVDAQGNWSGGLKPTGAPSAACKDTSKAQTYVRSATFQGKTALVYAWYMPKDEISTGIGHRHDWEGAVVFLNSDTQQIDGVAASAHGKWRKYPNPGGANIDDTHVKLQYSAEPVINSHALDLTDKGGDLPTLASWEGMGADARAAINERSHWGDANPPIADSLIGSSLSGAWMW

Variants of: B1
Details: Moniliophthora perniciosa; pH 7.2; Thermal; CD; sodium phosphate buffer 4mM; EDTA CaCl2 with ZnCl2 62.5 micro M 120 micro M 120 micro M; structure 3ST1; whole UniProt chain shown

Variant | Tm [°C] | change of melting temperature, mutant - wild type (higher = more stable) [°C]
D119K | 40.2 | 0.25
V170R | 37.7 | -2.26
D210S | 38.7 | -1.25
H116S | 39.9 | -0.07
H116A | 40.4 | 0.4
